Positions count from the first letter of the chain named. Names and notes keep the numbering of the source.

Assay type in all cases: biochemical
For data set [1], the system named is zein. In words: Thermostability of Protease Pfu (Relative Activity, methods of Example 2). As to conditions: pH 4.5. As to the method:
Yeast clones on SC-glucose were inoculated to a well of a 96-well micro titre plate containing YPD+Zn medium and cultivated at 28° C. for 3 days. The culture supernatants were applied to a 96-well zein micro titer plate and incubated at at least 2 temperatures (ex. 60° C. and 65° C., 70° C. and 75° C., 70° C. and 80° C.) for more than 4 hours or overnight. The turbidity of zein in the plate was measured as A630 and the relative activity (higher/lower temperatures) was determined as an indicator of thermoactivity improvement. The clones with higher relative activity than the parental variant were selected and the sequence was determined.
The thermostability of the Pyrococcus furiosus protease (Pfu S) purchased from Takara Bio Inc, (Japan) was tested using the same methods as in Example 2.

The test system of a further data set is azo-casein. In words: Remaining activity assay of protease variants (azo-casein). As to conditions: pH 4.5, 4° C. as reference; for Remaining activity 84° C.: 10 min at 84° C.; for Remaining activity 80° C.: 10 min at 80° C. As to the method: Yeast clones on SC-glucose were inoculated to a well of a 96-well micro titre plate and cultivated at 28° C. for 3 days. Protease activity was measured at 65° C. using azo-casein (Megazyme) after incubating the culture supernatant in 20 mM sodium acetate buffer, pH 4.5, for 10 min at a certain temperature (80° C. or 84° C. with 4° C. as a reference) to determine the remaining activity. The clones with higher remaining activity than the parental variant were selected and the sequence was determined.
20 microL of samples were mixed with 150 microL of substrate solution (4 ml of 12.5% azo-casein in ethanol in 96 ml of 20 mM sodium acetate, pH 4.5, containing 0.01% triton-100 and 0.25 mM ZnSO4) and incubated for 4 hours or longer.
After adding 20 microL/well of 100% trichloroacetic acid (TCA) solution, the plate was centrifuge and 100 microL of supernatants were pipette out to measure A440.

Data set [2] relates to zein. In words: Relative activity assay of protease variants (zein micro titer plate). The following applies: Table 4. An outline of the steps: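 Yeast culture supernatants (3 days, 28 °C) incubated over 4 h or overnight on zein-agar plates (pH 4.5 acetate, 0.25 mM ZnSO4) at two temperatures. Zein turbidity read at A630; higher/lower-temperature activity ratio gives relative thermoactivity.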

B1: Pfu S: commercial Pyrococcus furiosus protease purchased from Takara Bio Inc, (Japan); SEQ ID NO: 13 (protein, listed as Pyrococcus furiosus)
chain: AELEGLDESAAQVMATYVWNLGYDGSGITIGIIDTGIDASHPDLQGKVIGWVDFVNGRSYPYDDHGHGTHVASIAAGTGAASNGKYKGMAPGAKLAGIKVLGADGSGSISTIIKGVEWAVDNKDKYGIKVINLSLGSSQSSDGTDALSQAVNAAWDAGLVVVVAAGNSGPNKYTIGSPAAASKVITVGAVDKYDVITSFSSRGPTADGRLKPEVVAPGNWIIAARASGTSMGQPINDYYTAAPGTSMATPHVAGIAALLLQAHPSWTPDKVKTALIETADIVKPDEIADIAYGAGRVNAYKAINYDNYAKLVFTGYVANKGSQTHQFVISGASFVTATLYWDNANSDLDLYLYDPNGNQVDYSYTAYYGFEKVGYYNPTDGTWTIKVVSYSGSANYQVDVVSDGSLSQPGSS
modifications: mat_peptide (1)..(412) Pyrococcus furiosus protease (Pfu)
With B1, in the data set with zein [1], the “thermostability (Relative Activity) 80° C./70° C.” value is 110% and the “thermostability (Relative Activity) 90° C./70° C.” value amounted to 103%.

B2: JTP082: protease variant of SEQ ID NO: 3: ΔS5/D79L/S87P/A112P/D142L (protein, listed as Thermoascus aurantiacus)
chain: MRLVASLTALVALSVPVFPAAVNVKRASSYLEITLSQVSNTLIKAVVQNTGSDELSFVHLNFFKDPAPVKKVSVYRDGSEVQFEGILSRYKSTGLSRDAFTYLAPGESVEDVFDIASTYDLTSGGPVTIRTEGVVPYATANSTDIAGYISYSSNVLTIDVDGAAAATVSKAITPLDRRTRISCSGSRQSALTTALRNAASLANAAADAAQSGSASKFSEYFKTTSSSTRQTVAARLRAVAREASSSSSGATTYYCLDPYGYCSPNVLAYTLPSYNIIANCDIFYTYLPPLTSTCHAQDQATTALHEFTHAPGVYSPGTLDLAYGYQAAMGLSSSQAVMNADTYALYANAIYLGC
With B2, the “Remaining activity 84° C.” value in the data set on azo-casein is recorded as 53%. In addition, the “Relative activity 75° C./65° C.” value in the data set with zein [2] stood at 129%.

B3: JTP091: protease variant of SEQ ID NO: 3: D79L/S87P/A112P/T124V/D142L (protein, listed as Thermoascus aurantiacus)
chain: MRLVASLTALVALSVPVFPAAVNVKRASSYLEITLSQVSNTLIKAVVQNTGSDELSFVHLNFFKDPAPVKKVSVYRDGSEVQFEGILSRYKSTGLSRDAFTYLAPGESVEDVFDIASTYDLTSGGPVTIRTEGVVPYATANSTDIAGYISYSSNVLTIDVDGAAAATVSKAITPLDRRTRISSCSGSRQSALTTALRNAASLANAAADAAQSGSASKFSEYFKTTSSSTRQTVAARLRAVAREASSSSSGATTYYCLDPYGYCSPNVLAYTLPSYNIIANCDIFYTYLPPLTSTCHAQDQAVTALHEFTHAPGVYSPGTLDLAYGYQAAMGLSSSQAVMNADTYALYANAIYLGC
On to B3, for which the “Remaining activity 80° C.” value in the data set on azo-casein is 43%. The “Relative activity 75° C./65° C.” value with zein [2] is listed as 154%.

B4: JTP099: protease variant of SEQ ID NO: 3: D79L/P81R/S87P/A112P/D142L (protein, listed as Thermoascus aurantiacus)
chain: B3 chain with P259R, V302T
Take B4: the “Remaining activity 84° C.” value in the data set on azo-casein is listed as 80%.

B5: JTP117: protease variant of SEQ ID NO: 3: D79L/Y82F/S87P/A112P/T124V/D142L (protein, listed as Thermoascus aurantiacus)
chain: B3 chain with Y260F
For B5, in the data set with azo-casein, the “Remaining activity 80° C.” value was 94%.

B6: JTP101: protease variant of SEQ ID NO: 3: A27K/D79L/S87P/A112P/T124V/D142L (protein, listed as Thermoascus aurantiacus)
chain: B3 chain with A205K
For the molecule B6, the “Remaining activity 80° C.” value in the data set on azo-casein is on record as 81%.

B7: JTP127: protease variant of SEQ ID NO: 3: D79L/S87P/A112P/T124V/A126V/D142L (protein, listed as Thermoascus aurantiacus)
chain: B3 chain with A304V
As to B7, the “Remaining activity 80° C.” value with azo-casein was determined as 53%.

B8: JTP116: protease variant of SEQ ID NO: 3: D79L/Y82F/S87P/A112P/T124V/D142L (protein, listed as Thermoascus aurantiacus)
chain: B3 chain with Y260F
As for B8, in the data set on azo-casein, the “Remaining activity 80° C.” value is recorded as 59%.

B9: JTP096: protease variant of SEQ ID NO: 3: T46R/D79L/S87P/T116V/D142L (protein, listed as Thermoascus aurantiacus)
chain: B3 chain with T224R, P290A, T294V, V302T
As for B9, the “Remaining activity 84° C.” value in the data set with azo-casein turned out to be 67%.

The values are drawn from patent US20170283834A1, “Processes for Producing A Fermentation Product Using A Fermenting Organism” (Novozymes A/S, priority 2014, published 2017).
